Measured values taken from IntAct's records for PubMed 17588514.

B1: Replication restart protein PriB (Escherichia coli (strain K12)), P07013 (parent)
chain: MTNRLVLSGTVCRAPLRKVSPSGIPHCQFVLEHRSVQEEAGFHRQAWCQMPVIVSGHENQAITHSITVGSRITVQGFISCHKAKNGLSKMVLHAEQIELIDSGD
partner: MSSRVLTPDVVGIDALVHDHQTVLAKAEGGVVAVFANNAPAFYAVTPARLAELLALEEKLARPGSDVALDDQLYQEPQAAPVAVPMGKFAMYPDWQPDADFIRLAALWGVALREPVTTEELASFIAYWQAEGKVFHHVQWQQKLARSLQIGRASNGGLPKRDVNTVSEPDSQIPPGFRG

Variants of: B1
Conditions: with dnat_ecoli dnaT

effect of a mutation on the interaction	Variant
decreasing interaction	W47A;K82A
increasing interaction	Q45A
